The data set is described as follows: soluble on expression in E. coli; label from the status in PepcDB or PDB records.
For the sequence “MRCILLGSGTSTGVPEVGCHCRVCRSEDRHDKRTRTSLLIITDAGKRILIDCSPDFRQQALFAGIDSLDAVLLTHEHFDHVGGLDDLRTICWHRELAVYAEQNVLDSIRDRLHYVFRKNPYPGTPLLKLCEVKPDMPFQVADLTVEPLRIMHGRLPILGYKIGEMAFLTDMKDIAAEEIECLKSCRLLFINGLRYRKEHPSHQTIEQAIDTIGQIGNPESVLIHLSHHAPLHQEHLEILPPHIHSGYDGLEAIIDEKGIRIKDFEPHVSRSEYHYQDCGRIGYESALTLQRKLFHDAVADKLENRKPQNTLLFCEHEPVLTLGKHGHEENLLLSESELKSRDIRLFHIERGGDITYHGPGQITGYPIFDLEQYGIGLRSYIEMLEQCIIDLIAIFGLKGERSAGASGVWLDPDIPGRTRKICAIGVKSSRHITMHGFALNVNTDLDYFKLINPCGFSDRGVTSISRELGREQDFILVKQQLEAVFRRNFGAL”, the “soluble on expression in E. coli” value is “not soluble”. The result for “MRCIMTEDAQKLAIMEQDVKIVRALSKIKHKIVVMSGKGGVGKSTVTVKLAEEFSRNGYSVCVLDADVHGPDIPKMMRVREPEITLTGNLINPIPTPVGATVMSIEFFLPSEDTPVIWRGPKKTGAIRQLLADVNWEGIDVLIVDNPPGTGDEPLTVLQSIPGIDGVVIVTTPQEVSIHDVEKCINMVNHLKIPVLGIIENMSYLQCPECGKKVFLFGKDGGKYLADKFDLQFLGEIPFETGISGDNESSASSYINNEMVKIFNKLAKYLKDGGANLEHHHHHH” reads “soluble”; that for “MREFGEKIKRLRLAKKISRSEFCGDESELSIRQLIRIENGESRPILTKLKYIAERLGVEDYKLMPSYIELDKEYLELKYFLMRTPTYEDETIAQKKESVFDKIFEEYYDRLPEEERFIIPNYSYLALTNYTVQKLPEKLVEILSFW”, “not soluble”; that for “MREHTLKNGMKLLMVERHTSPTVAAWIRFRVGSVDERSDERGIAHLLEHMLFKGTKTLGTKDYAAEKPLLDKIEETAQALIAEKAKGARADAGRVDELGKKLNALEADAGKYVIKEEFAEIYARNGGAGYNAMTGKDGTTYLINMPSNKLELWAAIEGDRMQNAVLREFYTERDVVMEERRRSYDTEPGSKLWETFVAVTYNAHPYGQPIIGWMSDLENLTRTKAEEFFRRYYKPNNAIVALVGDIDPDKTIALVEKYFGDIPPGTLVGPVAVVEPAQQGERRVEILADAEPELLVGFHKPTLPNPDDYVFDVIDMILADGRTSRLYKKLVVEKQLAAEVSTFSAPGSRYPNLFVLAATPRAPHTAKEVEDAIYEELERLKKEPMTERELAQILNRLEYEESRQMISNGGLARNLTEYEAVTGSWRYLIEHRKEVAKVTPDDVIRVARKYFVRENRTVGVITKKEDVK”, “not soluble”.

Consider “MREIVWVHSQRIAPYKTLILNEFCYYPLELDPTPFNALIFTSKNAVFSLLETLKNSPKLKMLQNIPAYALSEPTAKTLQDHHFKVAFMGEKAHGKEFVQEIFPLLEKKSVLYLRAKEIVSSLDTILLEHGIDFKQAVVYENKLKHLTLSEQNALKPKEKSILIFTAISHAKAFLHYFEFLENYTAISIGNTTALYLQEQGIPSYIAKKPSLEACLELALSLRIKEC”, for which the “soluble on expression in E. coli” value is reported as “not soluble”. As for “MRGDDMHIYELVSRDRTHPVRIYLLHSEYWTEDEFYNLLLEAFQRSSASDWHLQILEVSKYLVTAHGFVEAGGLQEIGFPGELSKTEVRRRINAFLGKDRSD”, the “soluble on expression in E. coli” value is recorded as “soluble”. With “MRGRAVSRNAIIGIVHRNAKLAAIGFGRAKSSPASEGSSTYTPEEIKLVADCLKAKRNYVQIAQRLALKSGRIISRFGVKSLIRRTPELNEIGFRGKKGRPSDKKKAAPGQLPGRLFIAATADIDRDPSAFDYLTRPAVRALASQPHFAAMRFVDCLPARCRAPLSYDLEERPGPDMLCCGHLAMPSRSYCAYHEIRLTARKAEFIAEAALEHHHHHH” the entry was “not soluble”; with “MRGSGPRDRGSNPRPATTPTALSYISLPTSDSTRWGGLAVARARGVVLGYRRGTNTQYPQHALVKLLLDDPRKAGLYVSGIAFYRDRYGNVYKGRVLRLHGRRGGVVVVKFNPPLPGQATGGVVEVVKAGGDGLEHHHHHH”, “not soluble”.

Values taken from the DeepSol protein solubility set.
